Results on 18 sequences are retold here after the DeepSol protein solubility set.

The series is described as follows: soluble on expression in E. coli; label from the status in PepcDB or PDB records.
In the case of “MLFNSFQAKIDPSLADLFRNSDKEPFPAMTHELPPEKSLKARLLEQEDERISNVLAHEKRFSTEPVVIDDVFMSRLCVDSQPGCSRIPDIDIANVFRDDLESCTLSSSEDEEEEEEPIGQISTFEMLHAPRKPIVWSEQELSDFDMKSRLLDMRMDHWDLARIANVPKRIAKGETVNLRMPRYSAEVVKQRIAKGVTDIFGHFSLVPHTLTKSHKPVAERKQILIERYHDLMNDFDYATRPGSVESKKYANLTKRLNLCNDFLSAPKLPHRLFPRLIIRSIRPPETPKEPVKRKMRESESDDSVIIIPRKIEKEKPRPTTENVVLKKVEMEKKRPRSPELVPKKIVMEKERPSSPDSEAEEREHNLRIEKERHQKELEFRREALRKREQEREEHKKRAQEELRRQMTAALEESTRRQAEMNRQIEDEARKRDELQRIAEEKKRKQLLEDQCRAKQEKEKRDAEELEQMRLNIARLAGTKDVENALKSPSLVEIVPPSDARAFEMIKWNAVKCKIPENWEKRKDKFYRVFEWPSDAAQRDIERDEVVSIPRSKPIVIPQEDTYITRNRIPLKLPPKVKQAVPALVVRNSNNATRTVVAATVNENGIQWPAETINIDEVVREIRGLMAPTRRNFAISLSPKTDEIDYQAINLNRLKSGIVYPFYFSDGLYWPLVFLKSSKNGKPEAQRHVEALTSCKSFSGKYASRYLLTTTKEEDSATKKFEDAYADSDGDWADYSTKPGRFSNRAGFKPHYDTSNDSFEVQKQRAVDSLNSQYEKERNELDAFGRYTDEYRKRKDRAQYQNHIKTHLRELVRDARLDAFSFKEEFKDFEGGFEDYPGTRVEPYENDWYSHGYTLYSHTRDAAYADYMHDVCKPYEDMLPPTEYHEIFNEWCFTPMLASLHYQLKKNAFDVLSPQDVKDMEARHRKYIGLVQKERKFSLEQALDVCKLTDYDKRQWTILHDQLVTHFKDFPSISGLVYDRNTNLLANVNRNLKHLFSTIYRDDSPPDDQF”, the “soluble on expression in E. coli” value was “soluble”.
As for “MLGDVERFFSKKALEMRASEVRELLKLVETSDIISLAGGLPNPKTFPKEIIRDILVEIMEKYADKALQYGTTKGFTPLRETLMKWLGKRYGISQDNDIMITSGSQQALDLIGRVFLNPGDIVVVEAPTYLAALQAFNFYEPQYIQIPLDDEGMKVEILEEKLKELKSQGKKVKVVYTVPTFQNPAGVTMNEDRRKYLLELASEYDFIVVEDDPYGELRYSGNPEKKIKALDNEGRVIYLGTFSKILAPGFRIGWMVGDPGIIRKMEIAKQSTDLCTNVFGQVVAWRYVDGGYLEKHIPEIRKFYKPRRDAMLEALEEFMPEGVKWTKPEGGMFIWVTLPDGIDSKKMLERAIKKGVAYVPGEAFYAHRDVKNTMRLNFTYVDEDKIMEGIKRLAETIKEELKA”, the “soluble on expression in E. coli” value is given as “soluble”.
Turning to “MLGLPPELGLRTYSARLLGSNPKLVLHGGGNTSVKLNINDLFGNPVQVMCIKGSGQDLATITASGHPAVRLAPLQQLKVLDHLSDEDMVNILRTNLLDCRAPTPSVEALLHAFVDRPVIDHTHAVAAMVIADQPDGDRLCRYIYGERVLWIPYVMSGFALSLAVERAFRAYPDAEGMLLGKHGLCTFGESAKASYERMITFVTLAENFIESRRAIYSPLEHHHHHH”, the “soluble on expression in E. coli” value is on record as “not soluble”.
Then “MLGRALRPGWLGITRTVVKKPSCGSYFNRTFQTAINTTMPPMQEGMLSTMMMMTATATRITGTVSEPLNGSNIVMQLDSVMRKRKKKMKKHKLRKRRKREKAERRKLSQGR”, with “soluble”; and “MLGRTDISTFPRLKLGFWGEVTLTFPAVCDAAEIVLPANWADMSVAANNDNAAINTNNVNFLHISSYIRILVTTIPLRCGKTRDNPH”, with “not soluble”; and “MLHKEKPDYNRNQYGFYTLDQLVPDEHFLRQVEAVIDFDFIYDLVEDTYSSDNGRPSLDPVMLVKIPLIQCFYGIRSMRQTIKDIEVNTAYRWFLGLTLDDKVPHFTTYGKNYSRRFQEKGLIESIFTHIVGLCINTGLIDPTEIFIDGTHIKAAANNRKFINREVEKQAKFMSEQLEIEINRDREKHGKKPLGPAKELEPVAKKISTTDPESGWFHKGDHKEVFAYSAQVACDKYGWALAYSVEAGNIHDSQAFPALFAKLEPLKPQFIIADSGYNVPSIAKFLIDKEITPVLPYTRPRGKKDLLRPKELIYDEHFDCVICPEHQALTYRTTTREGYREYKSDPVICANCPLLSVCTTSKNYQKVVTRHIWKDYLAQPRNTTISAIRERKASPKWKIRLD”, with “not soluble”.
Turning to “MLHLIVADSELETIPEEMLDDPGVRRFAKKRNKRVDRMILDSNYMHAFIDKYYPGESKRRGRPDIIYILLEMAQESILNRKNLLRTYIHTRNDFVIKISPITRMPKSYNRFIGLFEDLFEKEIITNNGKTLLSLERMKLDELLESLKKDRTILLHPKGEFKKPSEFISTEDIAAIIGGFSEGDFRSDVSNIPEKYSIFRDELTIWSVGLEIVASYERAIGLLLEHHHHHH”, the “soluble on expression in E. coli” value is on record as “not soluble”.
For “MLHLIVLLVALSSAVTAGRPRRALDGLDGSGFGFDKRALNSLDGAGFGFEKRALNSLDGQGFGFEKRALDGLDGAGFGFDKRALNSLDGAGFGFEKRALDGLDGSGFGFDKRALNSLDGAGFGFEKRALNSLDGAGFGFEKRALDGLDGAGFGFDKRALNSLDGAGFGFEKRALDGLDGAGFGFDKRALNSLDGNGFGFDKRTFKHSSNKLRSVFRNLKGFKQH”, the “soluble on expression in E. coli” value is given as “not soluble”.
Turning to “MLITEIFHSIQGEGPYAGLPMLFVRTNVCNIRCEWCDTKYSFYGGKEIPLSELLGIVKEAKEGWVCFTGGEPLVQRDALAFVKSVVDMGKNVLIETNGTISIRNFVFSDRIFIDMDVKPPSAKVTKGFLMDNLRYLRKQDYLKIVIKDDTDLDFAIDFVDRYGEGLSFVFQPAWGSDIRRIADRIVGTGYNVRVLPQIHKIIYGDVPGV”, the “soluble on expression in E. coli” value is “not soluble”.
Then “MLIYISLIMKMERLSMVILELYQNDYSKDLVAFDSIEDGKAFVAQIPGYTLETEDGFEVEYFNPKNIPDYMEIIFNGNIVPLSKFMFDPEENVNIIWKEISNLSLKNDRVIEGYSKIDAYVVNNHEVKAYVETRETNYRKAKDFLESRGYEIDRSFFGSEDGEAILYRKKGIEVWHFLCHLDPMFVEIEDVEGYVKEEVGEIQ”, with “not soluble”; and “MLKGGEDVVQGTHVRELTPEWVARAVGGRLHPGGGPVRDLVWHSGAATPGSLFAVLPGRTTHGRHFIPEALARGASLVLADQAGPATLEVEDPWQALLRLGEALRRLFPGPVLAVGGSSGKTTTKEALAQGLGLPAPPGNLNTAPPLVRFFWHLDPQSPGAVVELGVDRQGEMAELFALAKPHLAVLTALGEEHLEAFGTLEKAVQEEAHLLRAPTALVGEQAAPLVLGLREDLLVYGFAEGTFRGRDLELGLRESRFRYGGLHVRVPYPGLGPAYGALAALAAAEVLGLSLEEVAERLARLTLPPGRMETREVGGVVFVNDAYNANPLSVKAGLRWLAAQPGRKWAVLGEMRELGRESLRLHLEVAEEAARLGLSPLYLGPHARHQAAFSGEAVESLEEALAWLKARVAPGDLVYLKASRAVGLERIVELWDAPFSS”, with “soluble”.
In the case of “MLKKNDIVEVEIVDLTHEGAGVAKVDGLVFFVENALPSEKILMRVLKVNKKIGFGKVEKYLVQSPHRNQDLDLAYLRSGIADLGHLSYPEQLKFKTKQVKDSLYKIAGIADVEVAETLGMEHPVKYRNKAQVPVRRVNGVLETGFFRKNSHNLMPLEDFFIQDPVIDQVVVALRDLLRRFDLKPYDEKEQSGLIRNLVVRRGHYSGQIMVVLVTTRPKVFRVDQLIEQVIKQFPEIVSVMQNINDQNTNAIFGKEWRTLYGQDYITDQMLGNDFQIAGPAFYQVNTEMAEKLYQTAIDFAELKKDDVIIDAYSGIGTIGLSVAKHVKEVYGVELIPEAVENSQKNASLNKITNAHYVCDTAENAMKKWLKEGIQPTVILVDPPRKGLTESFIKASAQTGADRIAYISCNVATMARDIKLYQELGYELKKVQPVDLFPQTHHVETVALLSKLDVDKHISVEIELDEMDLTSAESKATYAQIKEYVWNKFELKVSTLYIAQIKKKCGIELREHYNKSKKDKQIIPQCTPEKEEAIMDALRHFKMI”, the “soluble on expression in E. coli” value is “not soluble”.
As to “MLKLASSLRTGLISRSIRTLAPTVNPAEQQQVQAVLPDKLYSSVEIEYRGHDKAVLKSYTSFLQQVCQHLEIPQGRLEVLPYIRWVQPALRSKFVHKKYKLHYETRTHISKLEILNVTGSTASTFLEYIQRNIPEGVGMRVGFTELQPLPLTIQKN”, the “soluble on expression in E. coli” value is reported as “not soluble”.
As to “MLKMIAFDFDGTLAPTIPMVIDVFRRSVAPYVEHELTKQAIVQTFGLNEVGMVKAVAGQRWPVALAAFYQEYARAHLRVSAPYPGIVTLLELLQQQGVALALITGKAAKSCQISLDVTGLTSYFPTRLYGSECQPNKADNLRQLMRTKSLDAAELFYVGDTRSDFEAADTAGVQCLTAAWDPNQPIVEAGDQIVFTSVEQLWAYLQRRLGHGLVRPMSHKPR”, the “soluble on expression in E. coli” value is given as “not soluble”.
As to “MLKQSGKLRADATPAEVEQAVRDYLRQKAIHMPRGKGELYDKEAKRAEAMQDGQQTNGVLNGKGKKLGQSKTASVPSVKPEPWNGGKRVDRVLVLLIEYPDFPHNNIQPTETDMYYKDYTREHYEDMIFGGDDGYYDGPNGEKLISVKKYYEEQSGGSYSIEGKVAGWYQAKYPAKYYGGNVPAPDGNDANPRALVREALAAAAKDPSINLREFDQEDRYDLDGDGNYREPDGLIDHLMIIHSSVGEEAGGGSLGGAAIWSHRWNLGSVYRIPNTTTDVPYWRGQLAAYDYTIEPADGAAGVFAHEYGHDLGLPDEYDTIYSGLGEPIAYWSIMSSGSWAGRIPGTEPTGFSAWAKQFLQSTMPGSNWLSGTTVEWNEVTQNGVEVVLDEASTKGTNNDAVRINLLKKETVVTIPPSGAYAYFSGSGNNLDHTMSTTIDLTGASKATLAFDTWYAIEKDWDYGAVEVKPHGSNEWTTIQGNITTTNNPYGQNPGNGITGTSNGWVKAEFDLSAYAGQTIDLRFHYITDVAVSEAGWYFDNIQVTADGAAVLADGAEGDSSFVMTGFEKSNGKRYSDHYYLLEWRNHRGVDEGLAHILRGGRLLSYDPGLVVWYVDEGYDNNWTGVHPGEGFLGVVDADQHTLKWSGNTTASTRYQVHDAAFSLQKGASFRVAINGSQLIDNDTSPTPVFDDSRSYDNKGAVDAGRNVPNYGLKIRVIGESADRTAARVLIYR”, the “soluble on expression in E. coli” value is listed as “not soluble”.
For “MLKSKKRLLNPDYLFVTQDESSFYLDSNRSKCWAIKGSKPIKFISGSKTKINIGGFYTENRDFYWYDLGIKKNTDSFLKSLIKLKKDIGRKIFLLLDRATWHKSKKAREFFQNNKYWLQILLFPPATPDRNPTEYCWKTTREELTSIKSFKNIKVLKEELDEFWEKHVFTHKMSHYLKWLEHHHHHH”, the “soluble on expression in E. coli” value was “not soluble”.
With “MLKVDGIDVFYGNIHALKGVSLEVNKGEIVTLIGANGAGKTTLLKTISGLLRPKNGDIVYEGASIAGKAAQTIVKQGISHVPEGRRVFANMTVEENLELGAFLRKDKEGIQQDFAKVFQLFPRLEERRKQLAGTLSGGEQQMLAIGRALMARPKLLLLDEPSMGLAPLLVKTIFRIIQEINESGTTILLVEQNAHMALSIAHRAYVLESGRVVLSGTASELQASEQVKQAYLGGH”, the “soluble on expression in E. coli” value is recorded as “soluble”.
The value for “MLLFLTIILILVGGCTPKTKEVVLKNRNYVVIKEGKPALSEEDIIKLSRSLYVNKVNRPEVLRALKSLLTKRESLKYAFYRMKLYENIIVPILRSYGLPEEFKYLPIVESMYNPFAVSRSGAAGIWQLMPQTARRYGLIVRKDYDERFDVVKSTHAAAKYLRDLLEEFKNLELVLAAYNCGENCIRRNVNYNFWKERRKLPKETQNYVPLFLATLLIAQNPEYYGIHLYEPSREIAIVKVGIPMSVEDFLIMYSMNESRFRDLNPHIRGRKIPKNANVYVEERKLVKGEYLLRARGREE” was “not soluble”.
